Results published in patent publication US20250262274A1.

Target: VMRFL (VEGFR2-c-MPL chimeric receptor, D1-7 linked to the c-MPL TM) (human)
Assay: cell-based or functional assay

EC50 of % pSTAT5+ cells (VEGF dose-dependent STAT5 phosphorylation in VMRFL+ T cells): 106 pg/ml
EC50 of pSTAT5 MFI (VEGF dose-dependent STAT5 phosphorylation in VMRFL+ T cells): 144 pg/mL
Substance: recombinant human VEGF-A165 (from UniProt P15692 27-191) (ligand)
